Results reported in patent publication US20230416396A1 (Regeneron, published 2023).
Read-outs that look alike come from different tables or passages of the source.

What was measured:
[1] = target: T1, human CD38 endogenously expressed on MOLP8 cells (human, UniProt P28907 1-300); experiment: flow cytometry on MOLP8 cells (endogenous hCD38), APC anti-human secondary
T1 construct: whole, on cells; also called hCD38
Protocol: (§1) The ability of the multispecific antigen binding molecules to bind cells was assessed using flow cytometry. Cell lines were chosen to determine the ability of both the anti-CD38 and anti-4-1BB arms to bind their targets. […] Binding was detected by using a labeled secondary antibody and measuring fluorescence on a flow cytometer.
HEK293 cells were lifted with trypsin, washed and resuspend in stain buffer (2% FBS in PBS). MOLP8 cells were washed and resuspended in stain buffer. Cells were added to wells of a 96 well V-bottom plate (3×10⁵ cells/well). A 1:4, 9-point, dose titration of test antibodies was diluted in stain buffer and added to cells to a final concentration ranging from 610 fM to 10 nM (a “no antibody” control was included as the ninth point (153fM), labeled as “secondary only”). Cells and antibodies were incubated for 30 min on ice and then washed in stain buffer. Cells were resuspended in 2 ug/ml allophycocyanin (APC) conjugated goat-anti human secondary antibody and incubated for 30 min on ice. Cells were then washed and resuspended in viability dye (according to the manufacturer's protocol) and incubated for 30 min on ice. Cells were then washed with stain buffer and resuspended in 2% PFA for 30 min on ice. After washing, cells were filtered and analyzed by flow cytometry to determine the geometric mean fluorescence intensity (gMFI), which was subsequently plotted using GraphPad Prism software. EC₅₀ values of the antibodies were determined from a 4-parameter logistic equation over a 9-point dose response curve (including secondary only control, representing the ninth point).

human 4-1BB on cells [2] = target: T2, human 4-1BB on cells (human, UniProt Q07011 24-255); experiment: cell-based or functional assay
human 4-1BB on cells [3] = target: T2, human 4-1BB on cells; experiment: cell-based or functional assay; remark: listed apart in the source
human 4-1BB on cells [4] = target: T2, human 4-1BB on cells; experiment: cell-based or functional assay; remark: listed apart in the source
human 4-1BB on cells [5] = target: T2, human 4-1BB on cells; experiment: flow cytometry on HEK293/h4-1BB cells, APC anti-human secondary
Protocol: as §1
HEK293 and HEK293/4-1BB cells were lifted with trypsin, washed and resuspended in stain buffer (2% FBS in PBS) and added to wells of a 96 well V-bottom plate (3×10⁵ cells/well). A 1:5, 9-point, dose titration of test antibodies was diluted in stain buffer and added to cells to a final concentration ranging from 1.3 pM to 100 nM (a “no antibody” control was included as the ninth point ([…]) labeled as “secondary only”). Cells and antibodies were incubated for 30 min on ice and then washed in stain buffer. Cells were resuspended in 2 ug/ml allophycocyanin (APC) conjugated goat-anti human secondary antibody and incubated for 30 min on ice. Cells were then washed and resuspended in viability dye (according to the manufacturer's protocol) and incubated for 30 min on ice. Cells were then washed with stain buffer and resuspended in 2% PFA for 30 min on ice. After washing, cells were filtered and analyzed by flow cytometry to determine the geometric mean fluorescence intensity (gMFI), which was subsequently plotted using GraphPad Prism software. EC₅₀ values of the antibodies were determined from a 4-parameter logistic equation over a 9-point dose response curve (including secondary only control).

T2 sequence (Q07011 24-255): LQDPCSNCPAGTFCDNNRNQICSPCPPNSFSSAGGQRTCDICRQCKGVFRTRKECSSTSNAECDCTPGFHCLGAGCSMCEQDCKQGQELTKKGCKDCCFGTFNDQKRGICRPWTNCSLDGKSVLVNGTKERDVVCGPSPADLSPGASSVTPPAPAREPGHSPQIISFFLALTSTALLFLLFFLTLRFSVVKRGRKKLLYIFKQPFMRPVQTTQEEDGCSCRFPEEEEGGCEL

B1: REGN7633 (bispecific antibody, human IgG4 S228P, kappa)
heavy 1: QVQLVQSGPEVKNPGAAVKVSCKASGYTFTRFGISWVRQAPGQGLEWMGWISVDNGNANYAQRFQGRVTMTTDTSTSTAYMELRSLRSDDTAVYYCAREWSIAAPGYLDYWGQGTLVTVSSASTKGPSVFPLAPCSRSTSESTAALGCLVKDYFPEPVTVSWNSGALTSGVHTFPAVLQSSGLYSLSSVVTVPSSSLGTKTYTCNVDHKPSNTKVDKRVESKYGPPGGGGSGGGGSGGGGSEVQLVESGGGLVQPGRSLRLSCAASGYTFDDYAMHWVRQAPGKGLEWVSGISWISDVIGYADSVKGRFTISRDNAKNSLYLQMNSLRAEDTALYYCAKDNGGIIVATHYYSYGMDVWGQGTTVTVSSASTKGPSVFPLAPCSRSTSESTAALGCLVKDYFPEPVTVSWNSGALTSGVHTFPAVLQSSGLYSLSSVVTVPSSSLGTKTYTCNVDHKPSNTKVDKRVESKYGPPCPPCPAPPVAGPSVFLFPPKPKDTLMISRTPEVTCVVVDVSQEDPEVQFNWYVDGVEVHNAKTKPREEQFNSTYRVVSVLTVLHQDWLNGKEYKCKVSNKGLPSSIEKTISKAKGQPREPQVYTLPPSQEEMTKNQVSLTCLVKGFYPSDIAVEWESNGQPENNYKTTPPVLDSDGSFFLYSRLTVDKSRWQEGNVFSCSVMHEALHNRFTQKSLSLSPGK
heavy 2: EVQLVESGGGLVQPGRSLRLSCAASGFTFDDYAMHWVRQAPGKGLEWVSGISWKSDNIGYADSVKGRFTISRDNAKNSLYLQMNSLRAEDTALYYCAKALGGWKFDYYYGMDVWGQGTTVTVSSASTKGPSVFPLAPCSRSTSESTAALGCLVKDYFPEPVTVSWNSGALTSGVHTFPAVLQSSGLYSLSSVVTVPSSSLGTKTYTCNVDHKPSNTKVDKRVESKYGPPCPPCPAPPVAGPSVFLFPPKPKDTLMISRTPEVTCVVVDVSQEDPEVQFNWYVDGVEVHNAKTKPREEQFNSTYRVVSVLTVLHQDWLNGKEYKCKVSNKGLPSSIEKTISKAKGQPREPQVYTLPPSQEEMTKNQVSLTCLVKGFYPSDIAVEWESNGQPENNYKTTPPVLDSDGSFFLYSRLTVDKSRWQEGNVFSCSVMHEALHNHYTQKSLSLSLGK
light: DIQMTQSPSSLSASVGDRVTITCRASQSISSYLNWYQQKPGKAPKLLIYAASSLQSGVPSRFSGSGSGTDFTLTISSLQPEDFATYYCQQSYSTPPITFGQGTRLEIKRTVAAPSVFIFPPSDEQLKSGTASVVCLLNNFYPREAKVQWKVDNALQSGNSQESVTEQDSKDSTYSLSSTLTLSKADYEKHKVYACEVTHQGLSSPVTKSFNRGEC
notes: 1+2 format, hIgG4P-PVA; also called CD38x4-1BB (1 + 2); 26812P2 x 25889P2 (IN) + 35388P2 (OUT)
[1]
  MAX gMFI: 88000 gMFI

B2: REGN7150 (bispecific antibody, human IgG4 S228P, kappa)
heavy 1: QVQLVQSGAEVKKPGSSVKVSCKASGGPFRSSSFSWVRQAPGQGLEWMGGIIPILGKTNYAQKFQGRITIVTDESTTTVYMELSSLRSEDTAVFYCVRGSSLFDYWGQGTLVTVSSASTKGPSVFPLAPCSRSTSESTAALGCLVKDYFPEPVTVSWNSGALTSGVHTFPAVLQSSGLYSLSSVVTVPSSSLGTKTYTCNVDHKPSNTKVDKRVESKYGPPCPPCPAPPVAGPSVFLFPPKPKDTLMISRTPEVTCVVVDVSQEDPEVQFNWYVDGVEVHNAKTKPREEQFNSTYRVVSVLTVLHQDWLNGKEYKCKVSNKGLPSSIEKTISKAKGQPREPQVYTLPPSQEEMTKNQVSLTCLVKGFYPSDIAVEWESNGQPENNYKTTPPVLDSDGSFFLYSRLTVDKSRWQEGNVFSCSVMHEALHNHYTQKSLSLSLGK
heavy 2: QVQLVQSGAEVKKPGASVKVSCKASAYTFTSYGFSWVRQAPGQGLEWMGWISTSNGYTNYAQKIQDRVTMTTDTSTSTAYMELRSLRSDDTAVYYCASLSNWVSFFDYWGQGTLVTVSSASTKGPSVFPLAPCSRSTSESTAALGCLVKDYFPEPVTVSWNSGALTSGVHTFPAVLQSSGLYSLSSVVTVPSSSLGTKTYTCNVDHKPSNTKVDKRVESKYGPPCPPCPAPPVAGPSVFLFPPKPKDTLMISRTPEVTCVVVDVSQEDPEVQFNWYVDGVEVHNAKTKPREEQFNSTYRVVSVLTVLHQDWLNGKEYKCKVSNKGLPSSIEKTISKAKGQPREPQVYTLPPSQEEMTKNQVSLTCLVKGFYPSDIAVEWESNGQPENNYKTTPPVLDSDGSFFLYSRLTVDKSRWQEGNVFSCSVMHEALHNRFTQKSLSLSPGK
light: not shown
notes: 1+1 format control, hIgG4P-PVA, common 3-20 light chain; also called CD38x4-1BB (1 + 1); 26871P2 x 25921P
Human 4-1BB on cells [2]
  EC50 of IFNγ release, T cells + HEK293/CD20/CD38 + REGN2281: 0.78 nM
  EC50 of IFNγ release, T cells + MOLP-8 + REGN5458: 43.8 nM
  MAX IFNγ release, T cells + HEK293/CD20 + REGN2281: 1840 pg/mL
  MAX IFNγ release, T cells + HEK293/CD20/CD38 + REGN2281: 3950 pg/mL
  MAX IFNγ release, T cells + MOLP-8 + IsoC: 56 pg/mL
  MAX IFNγ release, T cells + MOLP-8 + REGN5458: 1300 pg/mL
  MAX IFNγ release, T cells + NALM-6: 620 pg/mL
Human 4-1BB on cells [3]
  EC50 of IL-2 release, T cells + HEK293/CD20/CD38 + REGN1979: ~0.1 nM
  EC50 of IL-2 release, T cells + MOLP-8 + REGN5458: 63.4 nM
  MAX IL-2 release, T cells + HEK293/CD20 + REGN1979: 182 pg/mL
  MAX IL-2 release, T cells + HEK293/CD20/CD38 + IsoC: 12 pg/mL
  MAX IL-2 release, T cells + HEK293/CD20/CD38 + REGN1979: 1300 pg/mL
  MAX IL-2 release, T cells + MOLP-8 + IsoC: 163 pg/mL
  MAX IL-2 release, T cells + MOLP-8 + REGN5458: 308 pg/mL
Human 4-1BB on cells [4]
  EC50 of IL-2 release, T cells + NALM-6: 0.108 nM
  MAX IL-2 release, T cells + HEK293/CD20 + REGN2281: 63 pg/mL
  MAX IL-2 release, T cells + HEK293/CD20/CD38 + REGN2281: 593 pg/mL
  MAX IL-2 release, T cells + MOLP-8 + IsoC: 48 pg/mL
  MAX IL-2 release, T cells + MOLP-8 + REGN5458: 32 pg/mL
  MAX IL-2 release, T cells + NALM-6: 122 pg/mL
Human 4-1BB on cells [5]
  EC50: 2.86 nM
  MAX gMFI: 2.4e+06 gMFI
[1]
  MAX gMFI: 210000 gMFI
